The values that follow come from US9902783B2, “Antibodies and pharmaceutical compositions containing same useful for inhibiting activity of metalloproteins” (Yeda Research and Development Co. Ltd., priority 2007, dated 2018).

Assay [1] is described as follows: competitive ELISA, affinity of mAbs toward their immunizing hapten. The settings on record: concentration of soluble hapten for 50% binding. As for the experimental part: Supernatants of the growing hybridomas were screened for antibodies reactive with ZnTCPP, CoTCPP or Imisdp using direct ELISA in which respective hapten-BSA (3 μg/ml in PBS) was coated to Nunc maxisorp plates. The coating was performed at 4° C. overnight and incubation with antibodies at 20° C. for 1 h. HRP-conjugated anti-mouse mAb (Sigma) was used as the secondary antibody and 2,2′-azino-bis (3-ethylbenzthiazoline-6-sulphonic acid, ABTS, Sigma) was used as substrate. PBS containing 0.005% v/v Tween 20 (PBST) was used as washing reagent. The dilution buffer was PBS. A602 was recorded by microplate reader in […]luor Plus spectrometer (Tecan, Austria). As control supernatants were incubated with BSA coated plates in the same manner Absorbance values above 0.5 millioptical density were considered as positive.
Different dilutions of hybridoma supernatant were incubated with hapten-BSA coated plates following the steps described earlier. Titration curve was plotted and the titer dilution was determined at 50% of binding. Supernatants diluted to the titer concentration were preincubated with soluble ZnTCPP, CoTCPP or Imisdp compounds for 30 minutes and then transferred to hapten-coated microtiter plates following the steps described previously. The estimated dissociation constant was the concentration of soluble hapten required to attain 50% binding.
A general note: In an ELISA, binding on a coated surface is turned into a signal by an enzyme label.

A further assay has as its system MMP-2. In words: kinetic assay with fluorogenic peptide substrate, MMP-2. In kind it is biochemical, human. Particulars: for inhibition of proteolytic activity of MMP-2: continuous fluorometric assay.
In the next assay the test system is MMP-9. In words: kinetic assay with fluorogenic peptide substrate, MMP-9. The settings on record: for mode of inhibition of MMP-9: Lineweaver-Burk plot; for IC50: Table 4; for inhibition of proteolytic activity of MMP-9: continuous fluorometric assay. It counts as biochemical, human.
Chain of MMP-9 (P14780 107-444 limits assumed): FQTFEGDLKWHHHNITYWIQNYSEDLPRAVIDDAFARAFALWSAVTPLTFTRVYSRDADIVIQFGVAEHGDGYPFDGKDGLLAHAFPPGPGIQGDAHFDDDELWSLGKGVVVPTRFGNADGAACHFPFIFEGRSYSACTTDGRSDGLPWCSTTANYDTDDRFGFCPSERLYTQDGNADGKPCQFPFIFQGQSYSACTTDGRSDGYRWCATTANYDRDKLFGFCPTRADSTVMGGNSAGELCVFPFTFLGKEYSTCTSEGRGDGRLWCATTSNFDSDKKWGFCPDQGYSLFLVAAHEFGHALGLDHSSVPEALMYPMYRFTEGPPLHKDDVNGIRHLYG
The target of a further assay is MT1-MMP (MMP-14) (Homo sapiens, UniProt P50281). In words: kinetic assay with fluorogenic peptide substrate, MT1-MMP. Particulars: for Ki: fit to competitive inhibition, fluorogenic peptide substrate. In kind it is biochemical.
A further assay concerns the target TACE (ADAM-17) (Homo sapiens, UniProt P78536). As to the kind of experiment: kinetic assay with fluorogenic peptide QF-45, TACE. It counts as biochemical. Particulars: for inhibitory effect toward TACE: in-vitro fluorescence enzymatic activity assay.
For assay [2], the system named is cell surface gelatinolytic activity of HT1080 cells. In words: in situ zymography with DQ-gelatin. In kind it is cell-based, human. As for the experimental part:
To localize net gelatinolytic activity of MMPs by in situ zymography, fluorescein isothiocyanate-labeled DQ gelatin that is intramolecularly quenched (Molecular Probes) was used as a substrate for degradation by gelatinases. Proteolysis by gelatinases yields cleaved fluorescein isothiocyanate-gelatin peptides and the localization of this fluorescence indicates the sites of net gelatinolytic activity. Briefly, Human fibrosarcoma HT1080 cells (which produce MMP-2, MMP-9 and MT1-MMP) were plated on 12-mm coverslips. […] Untreated cells served as negative control for this experiment. Cells were washed with PBS and then incubated with zymography reaction buffer (0.05 M Tris-HCl, 0.15 M NaCl, 5 mM CaCl2, and 0.2 mM NaN3, pH 7.6, the high concentration of azide prevented the gelatin from being phagocytosed and thus allowing cell surface gelatinolytic activity to occur) containing 60 ug/ml DQ gelatin at 37° C. overnight. […] At the end of the incubation period, without fixation or further washes, gelatinolytic activity of the MMPs was localized and photographed by fluorescence microscopy and images were acquired by Spot digital camera.
To confirm the inhibitory activity of anti CoTCPP mAb at cellular level, the effect of the antibody was examined on gelatinolytic activity of human fibrosarcoma HT1080 cells that constitutively secrete MMP-2 and 9 by in situ zymography. To localize gelatinolytic activity of MMPs by in situ zymography, fluorescein isothiocyanate-labeled gelatin that is intramolecularly quenched (DQ-gelatin) was used as substrate. Proteolysis by gelatinases yields cleaved fluorescein isothiocyanate-gelatin peptides and the localization of this fluorescence indicates the sites of net gelatinolytic activity.

Assay [3] has as its system Carbonic Anhydrase (CA). In words: functional inhibition experiment, Carbonic Anhydrase. In kind it is biochemical. The settings on record: for inhibition of Carbonic Anhydrase: in vitro functional inhibition. An excerpt:
(§1) The selectivity of anti CoTCPP and anti Imisdp was further challenged, by testing their cross reactivity with non related zinc dependent enzymes—Carbonic Anhydrase (CA) and brockii alcohol dehydrogenase (TbADH). Similar to active MMPs CA contains a zinc ion that is tetrahedraly coordinated to three histidine residues and a water molecule, TbADH contains a catalytic zinc ion that is tetraheadrally coordinated to four different amino acid residues, histidine, cysteine, aspartate and glutamate. […] Anti CoTCPP mAb was also tested for its cross reactivity with related physiological porphyrins such as the Heme group within Myoglobin and Hemoglobin and vitamin.
(§2) 6C6 was also tested for cross reactivity with different zinc dependent metalloproteases, Carbonic Anhydrase and Alcohol Dehydrogenase. Analogous to MMPs, Carbonic Anhydrase (CA) has a catalytic zinc ion tetrahedraly coordinated to three histidine ligands and a water molecule. Consequently, several potent small molecule MMP inhibitors (of the sulfonylated amino acid hydroxamate type) also act as efficient CA inhibitors and vice versa. Some N-hydroxysulfonamides investigated previously as CA inhibitors also show inhibitory properties against MMPs [Scozzafava, A. and C. T. Supuran, J Med Chem, 2000. 43(20): p. 3677-87]. The active site of Alcohol Dehydrogenase from thermophilic bacterium (TbADH) includes a different zinc-protein moiety in which zinc is bound to histidine, cysteine, aspartate and glutamate located inside a crevice.

In assay [4] the test system is Carbonic Anhydrase (CA). As to the kind of experiment: immuno affinity binding experiment, Carbonic Anhydrase.
From the text: as §1

For assay [5], the target named is T1, Alcohol Dehydrogenase (TbADH) (Thermoanaerobacter brockii, UniProt P14941).
T1 sequence (P14941 1-352): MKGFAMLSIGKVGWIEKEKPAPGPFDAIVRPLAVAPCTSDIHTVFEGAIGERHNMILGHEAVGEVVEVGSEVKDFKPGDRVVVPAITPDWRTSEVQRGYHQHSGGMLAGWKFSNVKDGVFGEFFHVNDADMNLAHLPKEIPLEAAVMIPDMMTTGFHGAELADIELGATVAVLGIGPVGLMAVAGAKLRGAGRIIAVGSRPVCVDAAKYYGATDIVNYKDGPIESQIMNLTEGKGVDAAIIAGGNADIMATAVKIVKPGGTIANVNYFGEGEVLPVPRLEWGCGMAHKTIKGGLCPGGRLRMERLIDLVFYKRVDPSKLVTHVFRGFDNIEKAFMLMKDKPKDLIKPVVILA
As to the kind of experiment: functional inhibition experiment, alcohol dehydrogenase. It counts as biochemical, thermophilic bacterium. The settings on record: for inhibition of TbADH: in vitro functional inhibition.
From the text: as §1, §2

Assay [6] addresses T2, brockii alcohol dehydrogenase (TbADH) (Thermoanaerobacter brockii, UniProt P14941).
T2 sequence (P14941 1-352): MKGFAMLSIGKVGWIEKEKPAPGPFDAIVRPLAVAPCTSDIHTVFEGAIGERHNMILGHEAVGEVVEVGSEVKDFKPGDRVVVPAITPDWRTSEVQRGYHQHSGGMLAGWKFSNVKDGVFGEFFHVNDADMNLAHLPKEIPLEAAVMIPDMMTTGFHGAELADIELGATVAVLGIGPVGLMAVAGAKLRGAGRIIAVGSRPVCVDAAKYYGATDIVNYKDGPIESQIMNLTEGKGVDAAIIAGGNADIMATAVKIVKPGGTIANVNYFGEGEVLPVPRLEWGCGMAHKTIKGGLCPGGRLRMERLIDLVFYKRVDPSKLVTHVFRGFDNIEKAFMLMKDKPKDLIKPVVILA
As to the kind of experiment: immuno affinity binding experiment, alcohol dehydrogenase. Also on record: species or system thermophilic bacterium.
From the text: as §1

Assay [7] in a line: cross reactivity, competitive ELISA and immuno affinity assay, vitamin. It counts as binding.
From the text: as §1
Carbonic anhydrase, and alcohol dehydrogenase all have rather buried active sites, similarly, the porphyrin moiety in Myoglobin and Hemoglobin is not exposed. Vitamin B 12 contains metal at the center of planer […] structure yet the axial ligands may interfere with the binding of the mAb.

Several values for one entry are separate records, joined by “and”; a condition that tells them apart may be missing. Equal entries are not always repeated. Entries after “also recorded” stand apart in the source; their conditions may differ.

Chain of TACE (ADAM-17) (P78536 215-824, species assumed): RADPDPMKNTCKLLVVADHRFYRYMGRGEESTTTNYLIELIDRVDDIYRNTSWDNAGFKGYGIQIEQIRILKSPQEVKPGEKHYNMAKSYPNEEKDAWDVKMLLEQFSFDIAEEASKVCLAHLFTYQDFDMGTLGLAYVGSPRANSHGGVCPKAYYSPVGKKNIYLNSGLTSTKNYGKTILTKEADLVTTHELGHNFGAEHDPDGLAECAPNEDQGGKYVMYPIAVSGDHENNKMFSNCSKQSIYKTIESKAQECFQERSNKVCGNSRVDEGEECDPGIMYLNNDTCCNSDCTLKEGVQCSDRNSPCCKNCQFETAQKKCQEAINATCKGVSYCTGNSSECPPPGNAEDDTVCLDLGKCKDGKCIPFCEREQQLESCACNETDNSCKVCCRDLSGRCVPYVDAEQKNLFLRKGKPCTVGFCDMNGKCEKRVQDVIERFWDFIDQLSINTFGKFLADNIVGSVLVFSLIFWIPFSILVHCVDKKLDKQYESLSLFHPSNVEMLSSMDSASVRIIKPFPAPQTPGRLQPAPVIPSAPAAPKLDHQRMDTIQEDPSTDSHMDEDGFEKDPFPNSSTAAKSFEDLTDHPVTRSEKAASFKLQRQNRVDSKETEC

B1: 6C6: monoclonal antibody, IgG2a, raised against the hapten Imisdp; MMP-2 and MMP-9 inhibitory; SEQ ID NO: 1 (protein)
chain: CMETTQTPLSLPVSLGDQASISCRSSQSIVHSNGNTFLEWYLQKPGQSPKLLIYKVSNCRFSGVPDRFSGSGSGTDFTLKISRVEAEDLGVYYCFQASHVPPTFGGG
modifications: 6c6 mAb light chain
For the molecule B1, binding in assay [1] was characterised by a dissociation constant (Kd) of 0.09 µM. For the same molecule, the IC50 (in general, the point on the concentration scale where inhibition reaches its midpoint) with MMP-2 (Table 4) is 3 ± 0.2 µM; in the assay with MMP-9, 4.5 ± 0.2 µM; in the assay with MT1-MMP (MMP-14) (Table 4) it was 14.4 ± 0.7 µM; with TACE (ADAM-17) (Table 4), more than 30 µM. Besides, the “inhibition of proteolytic activity of MMP-2” value in the assay with MMP-2 is listed as “inhibited”. In addition, in the assay with MMP-9, the “mode of inhibition of MMP-9” value is recorded as “competitive inhibition profile”. For the same molecule, the “inhibition of proteolytic activity of MMP-9” value with MMP-9 is “inhibited”. The Ki (as a rule, a measure of affinity in units of concentration, obtained from inhibition or displacement) with MT1-MMP (MMP-14) is 14.4 µM and 15 µM; in the assay with MT1-MMP (MMP-14) (listed as anti Imisdp mAb), 10 µM. The “inhibitory effect toward TACE” value with TACE (ADAM-17) was “did not display inhibitory effect”. Further, the “inhibition of TACE” value in the assay with TACE (ADAM-17) (mAb concentrations of up to 30 μM) is recorded as “neither MMP-7 nor TACE were inhibited to any measurable extent”. Besides, the “cell surface gelatinolytic activity” value in assay [2] (5 μM mAb) is reported as “significantly decreased; also recorded: significantly inhibited”. For the same molecule, the “inhibition of Carbonic Anhydrase” value in the assay on Carbonic Anhydrase (CA) [3] is “no binding or inhibition”. For the same molecule, in the assay with Carbonic Anhydrase (CA) [3] (mAb concentrations up to 30 μM), the “inhibitory effect toward Carbonic Anhydrase” value was “no inhibitory effect”. The “binding to Carbonic Anhydrase” value in the assay with Carbonic Anhydrase (CA) [4] is given as “no binding”. Besides, in assay [5], the “inhibition of TbADH” value is “no binding or inhibition”. The “inhibitory effect toward TbADH” value in assay [5] (mAb concentrations up to 30 μM) was “no inhibitory effect”. Moreover, the “binding to TbADH” value in assay [6] is listed as “no binding”.

B2: 13E11: monoclonal antibody, IgG2b, raised against the hapten CoTCPP (antibody, V domains shown)
VH: EGGGLVQPGGSRKLSCAASGFTFTSFGMHWVRQAPEKGLEWVAYISSGNEIIYYADTVKGRFTISRDNPKNTLFLQMTSLRSEDTAMYYCARNYYRYGFYVMDYWGQG
VL: EIVVTQSPAILSASPGEKVTMTCRASSSVSYMHWYQQKPGSSPKPWIYATSNELASGVPARFSGSGSGTSYSLTISRVEAEDAATYYCQQWISNPLTFGAG
modifications: 13E11 mAb heavy chain; 13E11 mAb light chain
notes: monoclonal antibody, IgG2b, raised against the hapten CoTCPP
For the molecule B2, binding in assay [1] was characterised by a dissociation constant (Kd) of 0.09 µM. For the same molecule, in the assay with MMP-2, the “inhibition of proteolytic activity of MMP-2” value is given as “inhibited”. In the assay on MMP-9, the “mode of inhibition of MMP-9” value is “competitive inhibitor”, it took 15 ± 0.8 µM to reach half-maximal inhibition (IC50) and the “inhibition of proteolytic activity of MMP-9” value is recorded as “inhibited”. In addition, the “inhibitory effect toward MT1-MMP” value with MT1-MMP (MMP-14) (in-vitro fluorescence enzymatic activity assay) is given as “no inhibitory effect”. Besides, the “inhibitory effect toward TACE” value with TACE (ADAM-17) is “no inhibitory effect”. In assay [2] (1 μM mAb, listed as anti CoTCPP mAb), the “cell surface gelatinase activity” value is given as “reduced; also recorded: significantly inhibited”. Further, in the assay on Carbonic Anhydrase (CA) [3], the “inhibition of Carbonic Anhydrase” value is recorded as “no binding or inhibition”. Moreover, in the assay with Carbonic Anhydrase (CA) [4], the “binding to Carbonic Anhydrase” value is given as “no binding”. In addition, the “inhibition of TbADH” value in [5] is reported as “no binding or inhibition”. For the same molecule, in assay [6], the “binding to TbADH” value is “no binding”. The “cross reactivity with vitamin” value in assay [7] was “No cross was detected”.
